PMC12647017, “Discovery and optimization of a synthetic small protein domain targeting antibodies” (Frontiers in Bioengineering and Biotechnology, 2025)

Columns and labels:
[1] = Solubility / precipitation observed during production, dialysis and purification; assay type: physicochemical; details: lead ligand sequences from WWp5_4 naïve library
Protocol: Therefore, after expression the soluble fractions were further centrifuged at 42,000 g for 20 min at 4 °C. As the samples were diluted (∼5 mg/mL in 25 mL lysis buffer), the soluble fractions were lyophilized and resuspended in 4 mL of water. The samples were dialyzed (Membranes Spectra Pre-Treated 1 kDa, Carl Roth) to Binding buffer without imidazole (20 mM Sodium Phosphate, 500 mM Sodium Chloride pH 7.4) for 24 h at 16 °C. The samples were quantified by […] (typically ∼6 mg/mL), this solution was diluted 1:2 in Binding buffer (20 mM Sodium Phosphate, 500 mM Sodium Chloride, 20 mM imidazole pH 7.4) and purified in a gravitational flow with 6 mL of resin (IMAC Sepharose 6 Fast Flow (Ni^2+), Cytiva) packed in a PD-10 column. The column was prepared using the indications of the manufacturer. The binding of the protein to the column was maximized by an incubation for 1 h at room temperature in agitation at 40rpm. The resin was washed 4 x column volumes (CV) with binding buffer. The elution as achieved by incubation for 15min with elution buffers. We used a gradient with 3 x CV elution buffer 1 (binding buffer with 100 mM imidazole) and 3 x CV elution buffer 2 (binding buffer with 200 mM imidazole).
The most enriched elutions in WW domains (60%–70% purity) were combined and dialysed against PBS1x (10 mM Na2HPO4, 1.8 mM KH2PO4, 2.7 mM KCl, 137 mM NaCl pH 7.4) with routine changes of buffer up to 48 h at 16 °C. Following the samples were concentrated with a Amicon-Ultra15 3 kDa MWCO (Millipore) with centrifugation conditions 4,900 g, 30 min, 4 °C. The final samples were quantified by BCA assay.
Size Exclusion Chromatography (SEC). The samples were further purified by SEC to achieve 90% purity in a AKTA system (Cytiva). The column Superdex 75 Increase 10/300 GL (29148721, Cytiva) was washed with water and equilibrated 2CV in PBS1x, as described by the manufacturer. As calibrants we prepare a mixture: 2 mg/mL of Bovine Serum Albumin (66 kDa, BP9702-100, FisherScientific), Ovalbumin (42 kDa, A5503-1G, Sigma), Chicken Lysozyme ([…], 62,971–10G-F, Fluka) and hPin1_WW chemically synthesized (5 kDa, produced in ([Dias et al., 2015])) in PBS 1x, this sample was filtered with 0.2 µm PES (514–0073, VWR) and analysed. The operation conditions: flow 0.5 mL/min, 0.05 CV in PBS1x and injection of 250 µL and run for 2 CV with PBS 1x at 16 °C. The same method was used for the WW domain samples. After purifications samples were quantified for total protein by BCA assay, as described previously and used for characterization.

[2] = tested on: hIgG; experiment: ELISA of soluble fractions of native and mutated WW domains against hIgG; assay type: binding; details: human IgG, soluble fraction, E6 detected with anti-HA-HRP, E6_M2 and Rosetta extract with anti-His-HRP, ABTS
Protocol: The soluble fraction of 100 mL cultures (100 μL) was used for ELISA against hIgG, as described in ([Dias et al., 2025]). Briefly, the target hIgG was immobilized (1 μg/well) in 0.1 M Sodium Bicarbonate pH 8.6 in Immuno Maxisorp ELISA plates (Thermo Fisher), overnight at 4 °C. In the next day, the unbound hIgG was removed, and the wells washed with PBS1x. To the wells was added the blocking solution – 5% (v/v) Soya Milk in PBS 1x and incubated for 1 h at room temperature. The wells were washed and incubated with 100 µL of soluble fraction (∼0.065 mg/mL total protein) at room temperature for 2 h.
The unbound WW domains were removed, and the wells were washed using 4 times PBS1x-0.05% Tween 20 and 1 time with PBS1x. For detection was used 1:1,000 anti-His-HRP conjugated antibody (MA1-21315-HRP, Invitrogen) in 1% (v/v) Soya Milk in PBS1x and incubated for 1 h at RT, after that the wells were washed with 5x PBS1x. The detection occurred with ABTS (2,2′-azino-bis(3-ethylbenzothiazoline-6-sulfonic acid) ready solution (11684302001, Roche), which was incubated in the dark for 1 h at 37 °C. Finally, the results were analysed in a microplate reader (Tecan) with appropriate filter at Abs405nm.
Figure S6 – Production and signal characterization of mutated versions. A – Tris-Tricine gels after cell lysis of the WW prototype sequence (WWp, band at ~8KDa), mutated WWp5_4 scaffold (WWp5_4_M2, band at ~8 kDa) and mutated E6 (E6_M2, band at ~ 12kDa). Samples were normalized 90µg total protein/lane. M - Precision Plus Protein™ Dual Xtra Prestained, Biorad; SF – soluble fraction; ISF – insoluble fraction. B1, B2, and B3 indicate production batchs in 1L culture, except for WWp B1 – 100 mL, WWp_5_4 B2 – 900 mL. Stained with Simplyblue. […] The detection of the clones was made with anti-His conjugated antibody with HRP and detected with ABTS as substrate.
Figure S7 – Comparison between ELISA signal of E6 versus E6_M2. […] The expression levels were detected by direct coating of the microplate well with the soluble fraction of the extract. […] All were detected with ABTS as substrate.

Sequence: SMGLPPGWDEYKT RRFKL GKTYYYNH HILS KTSTWTDPRMSS [Clone E6]
- solubility observed in production and purification [1]: limited solubility
- binding signal relative to negative control (E. coli Rosetta extract) [2]: 1.5 times
